The text below walks through data of the FLAb antibody collection.

The nature of the data set: patients with anti-drug antibodies; higher = more immunogenic.

B1: unnamed (protein)
chain 1: QVQLVESGGGVVQPGRSLRLSCAASGFTFSSFGMHWVRQAPGKGLEWVAYISSGSFTIYYADSVKGRFTISRDNSKNTLYLQMNSLRAEDTAVYYCARMRKGYAMDYWGQGTLVTVSS
chain 2: DVVMTQSPLSLPVTLGQPASISCRSSQIIIHSDGNTYLEWFQQRPGQSPRRLIYKVSNRFSGVPDRFSGSGSGTDFTLKISRVEAEDVGVYYCFQGSHVPHTFGQGTKVEIK
On to B1, for which the “patients with anti-drug antibodies” value is 0%.

B2: unnamed (protein)
chain 1: QVQLQESGPGLVKPSETLSLTCTVSGFSLTSYIVDWIRQPPGKGLEWIGVIWAGGSTGYNSALRSRVSITKDTSKNQFSLKLSSVTAADTAVYYCASAAYYSYYNYDGFAYWGQGTLVTVSS
chain 2: DVVMTQSPLSLPVTLGQPASISCKSSQSLLYTDGKTYLYWFLQRPGQSPRRLIYLVSKLDSGVPDRFSGSGSGTDFTLKISRVEAEDVGVYYCLQSTHFPHTFGGGTKVEIK
On to B2, for which the “patients with anti-drug antibodies” value amounted to 4%.

B3: unnamed (protein)
chain 1: EVQLVESGGGVVQPGRSLRLSCSASGFDFTTYWMSWVRQAPGKGLEWIGEIHPDSSTINYAPSLKDRFTISRDNAKNTLFLQMDSLRPEDTGVYFCASLYFGFPWFAYWGQGTPVTVSS
chain 2: DIQLTQSPSSLSASVGDRVTITCKASQDVGTSVAWYQQKPGKAPKLLIYWTSTRHTGVPSRFSGSGSGTDFTFTISSLQPEDIATYYCQQYSLYRSFGQGTKVEIK
For B3, the “patients with anti-drug antibodies” value came out at 0%.

B4: unnamed (protein)
chain 1: EVQLVESGGGVVQPGRSLRLSCSASGFIFSRYDMSWVRQAPGKGLEWVAYISHGGAGTYYPDSVKGRFTISRDNSKNTLFLQMDSLRPEDTGVYFCARGGVTKGYFDVWGQGTPVTVSS
chain 2: DIQMTQSPSSLSASVGDRVTITCRASGNIHNYLTWYQQTPGKAPKLLIYNAKTLADGVPSRFSGSGSGTDYTFTISSLQPEDIATYYCQHFWSIPYTFGQGTKLQIT
With B4, the “patients with anti-drug antibodies” value came to 16.8%.

B5: unnamed (protein)
chain 1: EVQLVQSGAEVKKPGASVKVSCKASGYRFTNYWIHWVRQAPGQGLEWIGGINPGNNYATYRRKFQGRVTMTADTSTSTVYMELSSLRSEDTAVYYCTREGYGNYGAWFAYWGQGTLVTVSS
chain 2: DVQVTQSPSSLSASVGDRVTITCRSSQSLANSYGNTFLSWYLHKPGKAPQLLIYGISNRFSGVPDRFSGSGSGTDFTLTISSLQPEDFATYYCLQGTHQPYTFGQGTKVEIK
Consider B5, for which the “patients with anti-drug antibodies” value stood at 2%.

B6: unnamed (protein)
chain 1: EVQLVESGGGLVQPGGSLRLSCAASGFTFNNYAMNWVRQAPGKGLDWVSTISGSGGTTNYADSVKGRFIISRDSSKHTLYLQMNSLRAEDTAVYYCAKDSNWGNFDLWGRGTLVTVSS
chain 2: not shown
Take B6: the “patients with anti-drug antibodies” value stood at 3.9%.

B7: unnamed (protein)
chain 1: EVQLVESGGGLVKPGGSLKLSCAASGFKFSRYAMSWVRQAPGKRLEWVATISSGGSYIYYPDSVKGRFTISRDNVKNTLYLQMSSLRSEDTAMYYCARRDYDLDYFDSWGQGTLVTVSS
chain 2: DIQMTQSPSSLSASVGDRVTITCKASRDIRSYLTWYQQKPGKAPKTLIYYATSLADGVPSRFSGSGSGQDYSLTISSLESDDTATYYCLQHGESPFTLGSGTKLEIK
In the case of B7, the “patients with anti-drug antibodies” value worked out at 15.8%.

B8: unnamed (protein)
chain 1: QVQLVQSGAEVKKPGSSVKVSCKASGYSFTDYHIHWVRQAPGQGLEWMGVINPMYGTTDYNQRFKGRVTITADESTSTAYMELSSLRSEDTAVYYCARYDYFTGTGVYWGQGTLVTVSS
chain 2: DIVMTQTPLSLSVTPGQPASISCRSSRSLVHSRGNTYLHWYLQKPGQSPQLLIYKVSNRFIGVPDRFSGSGSGTDFTLKISRVEAEDVGVYYCSQSTHLPFTFGQGTKLEIK
On to B8, for which the “patients with anti-drug antibodies” value was determined as 8.5%.

B9: unnamed (protein)
chain 1: QVQLVQSGAEVMKPGSSVKVSCKASGYTFSWYWLEWVRQAPGHGLEWMGEIDPGTFTTNYNEKFKARVTFTADTSTSTAYMELSSLRSEDTAVYYCARFSHFSGSNYDYFDYWGQGTLVTVSS
chain 2: EIVMTQSPATLSVSPGERATLSCRASQSIGTNIHWYQQKPGQAPRLLIYYASESISGIPARFSGSGSGTEFTLTISSLQSEDFAVYYCQQSWSWPTTFGGGTKVEIK
In the case of B9, the “patients with anti-drug antibodies” value is 6.3%.

B10: unnamed (protein)
chain 1: QVQLVQSGAEVKKPGSSVKVSCKASGYTFTDYNMHWVRQAPGQGLEWIGYIYPYNGGTGYNQKFKSKATITADESTNTAYMELSSLRSEDTAVYYCARGRPAMDYWGQGTLVTVSS
chain 2: DIQMTQSPSSLSASVGDRVTITCRASESVDNYGISFMNWFQQKPGKAPKLLIYAASNQGSGVPSRFSGSGSGTDFTLTISSLQPDDFATYYCQQSKEVPWTFGQGTKVEIK
Turning to B10, the “patients with anti-drug antibodies” value is 0%.

B11: unnamed (protein)
chain 1: QVQLVQSGGGLVQPGGSLRLSCAASGFTFSSYYMSWVRQAPGKGLEWVSGIYSDGTTHYGDSVKGRFTISRDNAKNTVYLQLNSLRAEDTAMYYCAKGAGPTWWYALDAWGQGTLVTVSS
chain 2: DIQLTQSPSSVSVSVGERVTIDCKSSQSVLSASNTYLNWYQQKPGQAPQLLIYYASTRESGVPDRFSGSGSGTDFTLTISSLQAEDAAVYYCQQAYRAPVTFGQGTKLEIK
With B11, the “patients with anti-drug antibodies” value amounted to 0%.

B12: unnamed (protein)
chain 1: QVTLRESGPALVKPTQTLTLTCTVSGFSLSAYSVNWIRQPPGKALEWLAMIWGDGKIVYNSALKSRLTISKDTSKNQVVLTMTNMDPVDTATYYCAGDGYYPYAMDNWGQGSLVTVSS
chain 2: DIVMTQSPDSLSVSLGERATINCRASKSVDSYGNSFMHWYQQKPGQPPKLLIYLASNLESGVPDRFSGSGSGTDFTLTISSLQAEDVAVYYCQQNNEDPRTFGGGTKVEIK
B12: the “patients with anti-drug antibodies” value came out at 30%.

B13: unnamed (protein)
chain 1: QVQLVQPGAEVVKPGASVKLSCKTSGYTFTSNWMHWVKQAPGQGLEWIGEIDPSDSYTNYNQNFQGKAKLTVDKSTSTAYMEVSSLRSDDTAVYYCARGSNPYYYAMDYWGQGTSVTVSS
chain 2: EIVLTQSPAIMSASPGERVTMTCSASSGVNYMHWYQQKPGTSPRRWIYDTSKLASGVPARFSGSGSGTSYSLTISSMEPEDAATYYCHQRGSYTFGGGTKLEIK
Consider B13, for which the “patients with anti-drug antibodies” value was 0%.

B14: unnamed (protein)
chain 1: EVQLLESGGGLVQPGGSLRLSCAASGFTFSIYSMNWVRQAPGKGLEWVSSIGSSGGTTYYADSVKGRFTISRDNSKNTLYLQMNSLRAEDTAVYYCAGSQWLYGMDVWGQGTTVTVSS
chain 2: DIQMTQSPSSLSASVGDRVTITCRSSQRIMTYLNWYQQKPGKAPKLLIFVASHSQSGVPSRFRGSGSETDFTLTISGLQPEDSATYYCQQSFWTPLTFGGGTKVEIK
B14: the “patients with anti-drug antibodies” value amounted to 7.4%.

B15: unnamed (protein)
chain 1: EVQLVESGGGLVRPGGSLRLSCAASGFTFSNYDMHWVRQATGKGLEWVSAITAAGDIYYPGSVKGRFTISRENAKNSLYLQMNSLRAGDTAVYYCARGRYSGSGSYYNDWFDPWGQGTLVTVSS
chain 2: EIVLTQSPATLSLSPGERATLSCRASQSVSSYLAWYQQKPGQAPRLLIYDASNRATGIPARFSGSGSGTDFTLTISSLEPEDFAVYYCQQRSNWPLTFGGGTKVEIK
As to B15, the “patients with anti-drug antibodies” value was determined as 3.6%.

B16: unnamed (protein)
chain 1: EVQLLESGGGLVQPGGSLRLSCAASGFTFSHYIMMWVRQAPGKGLEWVSGIYSSGGITVYADSVKGRFTISRDNSKNTLYLQMNSLRAEDTAVYYCAYRRIGVPRRDEFDIWGQGTMVTVSS
chain 2: DIQMTQSPSTLSASVGDRVTITCRASQSISSWLAWYQQKPGKAPKLLIYKASTLESGVPSRFSGSGSGTEFTLTISSLQPDDFATYYCQQYNTYWTFGQGTKVEIK
As to B16, the “patients with anti-drug antibodies” value worked out at 7%.

B17: unnamed (protein)
chain 1: EVQLVESGGGLVQPGGSLRLSCAASGFSFSDFAMSWVRQAPGKGLEWVATIGRVAFHTYYPDSMKGRFTISRDNSKNTLYLQMNSLRAEDTAVYYCARHRGFDVGHFDFWGQGTLVTVSS
chain 2: DIQMTQSPSSLSASVGDRVTITCRSSETLVHSSGNTYLEWYQQKPGKAPKLLIYRVSNRFSGVPSRFSGSGSGTDFTLTISSLQPEDFATYYCFQGSFNPLTFGQGTKVEIK
As to B17, the “patients with anti-drug antibodies” value stood at 18%.

B18: unnamed (protein)
chain 1: QVQLKESGPGLVAPSQSLSITCTVSGFSVTNYGVHWVRQPPGKGLEWLGVIWAGGITNYNSAFMSRLSISKDNSKSQVFLKMNSLQIDDTAMYYCASRGGHYGYALDYWGQGTSVTVSS
chain 2: SIVMTQTPKFLLVSAGDRVTITCKASQSVSNDVTWYQQKAGQSPKLLIYSASNRYSGVPDRFTGSGYGTAFTFTISTVQAEDLAVYFCQQDYSSFGGGTKLEIK
As to B18, the “patients with anti-drug antibodies” value was found to be 100%.

B19: unnamed (protein)
chain 1: EVKLEESGGGLVQPGGSMKLSCVASGFIFSNHWMNWVRQSPEKGLEWVAEIRSKSINSATHYAESVKGRFTISRDDSKSAVYLQMTDLRTEDTGVYYCSRNYYGSTYDYWGQGTTLTVSS
chain 2: DILLTQSPAILSVSPGERVSFSCRASQFVGSSIHWYQQRTNGSPRLLIKYASESMSGIPSRFSGSGSGTDFTLSINTVESEDIADYYCQQSHSWPFTFGSGTNLEVK
Consider B19, for which the “patients with anti-drug antibodies” value is 30.5%.

B20: unnamed (protein)
chain 1: QVQLVESGGGVVQPGRSLRLSCAASGFTFSSYGMHWVRQAPGKGLEWVAVISYEESNRYHADSVKGRFTISRDNSKITLYLQMNSLRTEDTAVYYCARDGGIAAPGPDYWGQGTLVTVSS
chain 2: DIVMTQSPLSLTVTPGEPASISCRSSQSLLYSNGYNYLDWYLQKPGQSPQVLISLGSNRASGVPDRFSGSGSGTDFTLKISRVEAEDVGVYYCMQARQTPFTFGPGTKVDIR
B20: the “patients with anti-drug antibodies” value amounted to 1.8%.
